Data from patent publication US20240400614A1, “CLEAVABLE PEPTIDES AND METHODS OF USE THEREOF” (Bright Peak Therapeutics AG, priority 2023, published 2024).
Square brackets hold non-standard residues; d marks the D form. Ends that are not written are not given here. Tyr(3-NO2) = N[C@@H](Cc1ccc(O)c([N+](=O)[O-])c1)C(=O)O; Nle = CCCC[C@H](N)C(=O)O; 2Abz = Nc1ccccc1C(=O)O

How the values were obtained:
Type in all cases: biochemical
uPA = uPA (Homo sapiens, UniProt P00749); assay: FRET peptide cleavage efficiency with uPA
MMP-2 = molecular target: T1, MMP-2 (Homo sapiens, UniProt P08253); assay: FRET peptide cleavage efficiency with MMP-2
T1 construct: purchased SIGMA PF023
T1 sequence (P08253 110-660): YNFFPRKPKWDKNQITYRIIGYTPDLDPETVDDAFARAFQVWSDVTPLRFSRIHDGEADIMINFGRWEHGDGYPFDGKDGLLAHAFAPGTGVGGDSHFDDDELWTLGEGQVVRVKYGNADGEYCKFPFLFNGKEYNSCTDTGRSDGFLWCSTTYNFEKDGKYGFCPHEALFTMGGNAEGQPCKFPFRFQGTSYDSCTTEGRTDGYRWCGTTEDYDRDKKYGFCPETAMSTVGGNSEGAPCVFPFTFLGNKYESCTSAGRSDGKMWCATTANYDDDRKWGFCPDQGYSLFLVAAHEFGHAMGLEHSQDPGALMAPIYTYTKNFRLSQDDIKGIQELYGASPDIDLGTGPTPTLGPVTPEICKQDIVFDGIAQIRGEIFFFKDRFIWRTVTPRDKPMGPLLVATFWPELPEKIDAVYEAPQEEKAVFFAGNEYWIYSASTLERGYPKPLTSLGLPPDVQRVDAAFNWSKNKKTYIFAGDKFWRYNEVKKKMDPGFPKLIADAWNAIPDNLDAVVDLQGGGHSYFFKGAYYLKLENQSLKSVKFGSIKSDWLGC

matriptase = molecular target: T2, matriptase (Homo sapiens, UniProt Q9Y5Y6); assay: FRET peptide cleavage efficiency with matriptase
T2 construct: purchased R&D Systems 3946-SEB
T2 sequence (Q9Y5Y6 615-855 limits assumed): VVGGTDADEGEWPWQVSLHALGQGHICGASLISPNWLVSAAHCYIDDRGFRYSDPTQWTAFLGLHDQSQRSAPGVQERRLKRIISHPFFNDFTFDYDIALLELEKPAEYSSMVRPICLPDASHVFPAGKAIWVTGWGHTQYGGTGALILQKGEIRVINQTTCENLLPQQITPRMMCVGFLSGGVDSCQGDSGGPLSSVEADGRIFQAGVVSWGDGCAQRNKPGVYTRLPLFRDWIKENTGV

MMP-7 = molecular target: T3, MMP-7 (Homo sapiens, UniProt P09237); assay: FRET peptide cleavage efficiency with MMP-7 (standard pH 7.5; also pH 6.5)
T3 construct: purchased SIGMA CC1059
T3 sequence (P09237 95-267): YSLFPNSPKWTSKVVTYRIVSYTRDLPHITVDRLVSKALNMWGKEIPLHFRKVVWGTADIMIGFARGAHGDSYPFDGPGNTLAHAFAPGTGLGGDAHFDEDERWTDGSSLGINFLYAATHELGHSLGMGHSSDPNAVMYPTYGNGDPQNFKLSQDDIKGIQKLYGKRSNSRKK

MMP-9 = molecular target: T4, MMP-9 (Homo sapiens, UniProt P14780); assay: FRET peptide cleavage efficiency with MMP-9 (standard pH 7.5; also pH 6.5)
T4 construct: purchased SIGMA PF024

[1] = t = 60 min, standard conditions (Table 8)
[2] = t = 120 min, standard conditions (Table 8)
[3] = t = 15 min, standard conditions (Table 8)
[4] = 200 uM linker, 1 ug/ml protease, 37° C., buffer A pH 8.5
[5] = t = 15 min, 200 uM linker, 1 ug/ml protease, 37° C., buffer C pH 7.5
[6] = t = 60 min, 200 uM linker, 1 ug/ml protease, 37° C., buffer C pH 7.5
[7] = t = 120 min, 200 uM linker, 1 ug/ml protease, 37° C., buffer C pH 7.5
[8] = 200 uM linker, 1 ug/ml protease, 37° C., buffer B pH 9.0

T4 sequence (P14780 94-707): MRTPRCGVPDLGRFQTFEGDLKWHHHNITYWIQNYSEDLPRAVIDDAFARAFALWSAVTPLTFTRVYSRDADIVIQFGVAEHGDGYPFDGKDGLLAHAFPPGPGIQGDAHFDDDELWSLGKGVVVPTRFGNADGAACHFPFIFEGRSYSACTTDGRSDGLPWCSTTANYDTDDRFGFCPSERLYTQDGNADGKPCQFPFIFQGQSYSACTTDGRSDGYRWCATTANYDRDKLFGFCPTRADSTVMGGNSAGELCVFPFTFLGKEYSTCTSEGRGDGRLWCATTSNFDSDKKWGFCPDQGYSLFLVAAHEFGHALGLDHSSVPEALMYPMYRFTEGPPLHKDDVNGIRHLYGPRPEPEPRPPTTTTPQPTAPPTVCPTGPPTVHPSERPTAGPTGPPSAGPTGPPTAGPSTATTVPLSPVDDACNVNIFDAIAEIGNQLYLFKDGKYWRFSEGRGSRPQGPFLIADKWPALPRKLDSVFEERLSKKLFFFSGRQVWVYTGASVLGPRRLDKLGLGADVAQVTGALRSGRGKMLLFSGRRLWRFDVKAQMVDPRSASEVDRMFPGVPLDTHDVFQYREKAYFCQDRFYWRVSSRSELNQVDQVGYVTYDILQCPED

Substance | % vcleavage uPA t = 15 min (uPA; standard conditions (Table 8)) [%] | % cleavage uPA t = 60 min (uPA; standard conditions (Table 8)) [%] | % cleavage uPA t = 120 min (uPA; standard conditions (Table 8)) [%] | % cleavage MMP-2 t = 15 min (MMP-2; t = 15 min (Table 9)) [%] | % cleavage MMP-2 t = 60 min (MMP-2; t = 60 min (Table 9)) [%] | % cleavage MMP-2 t = 60 min (MMP-2; [1]) [%] | % cleavage MMP-2 t = 120 min (MMP-2; t = 120 min (Table 9)) [%] | % cleavage MMP-2 t = 120 min (MMP-2; [2]) [%] | % cleavage Matriptase t = 15 min (matriptase; standard conditions (Table 8)) [%] | % cleavage Matriptase t = 60 min (matriptase; standard conditions (Table 8)) [%] | % cleavage Matriptase t = 120 min (matriptase; standard conditions (Table 8)) [%] | % cleavage MMP-7 t = 15 min (MMP-7; t = 15 min (Table 9)) [%] | % cleavage MMP-7 t = 15 min (MMP-7; [3]) [%] | % cleavage MMP-7 t = 60 min (MMP-7; t = 60 min (Table 9)) [%] | % cleavage MMP-7 t = 60 min (MMP-7; [1]) [%] | % cleavage MMP-7 t = 120 min (MMP-7; t = 120 min (Table 9)) [%] | % cleavage MMP-7 t = 120 min (MMP-7; [2]) [%] | % cleavage MMP-9 t = 15 min (MMP-9; t = 15 min (Table 9)) [%] | % cleavage MMP-9 t = 60 min (MMP-9; t = 60 min (Table 9)) [%] | % cleavage MMP-9 t = 120 min (MMP-9; t = 120 min (Table 9)) [%] | further results
RGRKSPY-Nle-LQG ([2Abz]RGRKSPY[Nle]LQG[Tyr(3-NO2)]-NH2) [LNK038] | 0 | 0 | 0 | 19 | 55 | 55 | 76 | 76 | 100 | 100 | 100 | 22 | 22 | 69 | 69 | 92 | 92 | 23 | 71 | 97 | % cleavage MMP-9 t = 15 min (MMP-9; [3]): 23%; % cleavage MMP-9 t = 60 min (MMP-9; [1]): 71%; % cleavage MMP-9 t = 120 min (MMP-9; [2]): 97%
RGRKSPYMLQG ([2Abz]RGRKSPYMLQG[Tyr(3-NO2)]-NH2) [LNK037] | 0 | 0 | 0 | 28 | 70 | 70 | 89 | 89 | 90 | 100 | 100 | 19 | 19 | 63 | 63 | 88 | 88 | 46 | 100 | 100 | % cleavage MMP-9 t = 15 min (MMP-9; [3]): 46%; % cleavage MMP-9 t = 60 min (MMP-9; [1]): 100%; % cleavage MMP-9 t = 120 min (MMP-9; [2]): 100%
RGRKSQPLVD ([2Abz]RGRKSQPLVD[Tyr(3-NO2)]-NH2) [LNK041] | 0 | 0 | 0 | 0 | 0 | 0 | 0 | 0 | 100 | 100 | 100 | 1 | 1 | 4 | 4 | 9 | 9 | 0 | 1 | 1 | % cleavage MMP-9 t = 15 min (MMP-9; [3]): 0%; % cleavage MMP-9 t = 60 min (MMP-9; [1]): 1%; % cleavage MMP-9 t = 120 min (MMP-9; [2]): 1%
RGRKVANLVG ([2Abz]RGRKVANLVG[Tyr(3-NO2)]-NH2) [LNK031] | 1 | 1 | 2 | 77 | 100 | 100 | 100 | 100 | 99 | 100 | 100 | 22 | 22 | 74 | 74 | 93 | 93 | 75 | 100 | 100 | % cleavage MMP-9 t = 15 min (MMP-9; [3]): 75%; % cleavage MMP-9 t = 60 min (MMP-9; [1]): 100%; % cleavage MMP-9 t = 120 min (MMP-9; [2]): 100%
RGRRAANLVRPLGYFGKL ([2Abz]RGRRAANLVRPLGYFGKL[Tyr(3-NO2)]-NH2) [LNK060] |  |  |  | 76 | 100 |  | 100 |  |  |  |  | 0 |  | 0 |  | 0 |  | 32 | 100 | 100 | % cleavage uPA t = 15 min (uPA; [4]): 2%; % cleavage uPA t = 60 min (uPA; [4]): 11%; % cleavage uPA t = 120 min (uPA; [4]): 25%; % cleavage MMP-2 t = 15 min (MMP-2; [5]): 76%; % cleavage MMP-2 t = 60 min (MMP-2; [6]): 100%; % cleavage MMP-2 t = 120 min (MMP-2; [7]): 100%; % cleavage Matriptase t = 15 min (matriptase; [8]): 90%; % cleavage Matriptase t = 60 min (matriptase; [8]): 100%; % cleavage Matriptase t = 120 min (matriptase; [8]): 100%

The next lines start with results.

% vcleavage uPA t = 15 min (uPA; standard conditions (Table 8)) [%] | % cleavage uPA t = 60 min (uPA; standard conditions (Table 8)) [%] | % cleavage uPA t = 120 min (uPA; standard conditions (Table 8)) [%] | % cleavage MMP-2 t = 15 min (MMP-2; t = 15 min (Table 9)) [%] | % cleavage MMP-2 t = 60 min (MMP-2; t = 60 min (Table 9)) [%] | % cleavage MMP-2 t = 60 min (MMP-2; [1]) [%] | % cleavage MMP-2 t = 120 min (MMP-2; t = 120 min (Table 9)) [%] | % cleavage MMP-2 t = 120 min (MMP-2; [2]) [%] | % cleavage Matriptase t = 15 min (matriptase; standard conditions (Table 8)) [%] | % cleavage Matriptase t = 60 min (matriptase; standard conditions (Table 8)) [%] | % cleavage Matriptase t = 120 min (matriptase; standard conditions (Table 8)) [%] | % cleavage MMP-7 t = 15 min (MMP-7; t = 15 min (Table 9)) [%] | % cleavage MMP-7 t = 15 min (MMP-7; [3]) [%] | % cleavage MMP-7 t = 60 min (MMP-7; t = 60 min (Table 9)) [%] | % cleavage MMP-7 t = 60 min (MMP-7; [1]) [%] | % cleavage MMP-7 t = 120 min (MMP-7; t = 120 min (Table 9)) [%] | % cleavage MMP-7 t = 120 min (MMP-7; [2]) [%] | % cleavage MMP-9 t = 15 min (MMP-9; t = 15 min (Table 9)) [%] | % cleavage MMP-9 t = 60 min (MMP-9; t = 60 min (Table 9)) [%] | % cleavage MMP-9 t = 120 min (MMP-9; t = 120 min (Table 9)) [%] | Substance | further results
0 | 0 | 0 | 0 | 0 | 0 | 0 | 0 | 100 | 100 | 100 | 0 | 0 | 0 | 0 | 0 | 0 | 0 | 0 | 0 | RGRRGP ([2Abz]RGRRGP[Tyr(3-NO2)]-NH2) [LNK048] | % cleavage MMP-9 t = 15 min (MMP-9; [3]): 0%; % cleavage MMP-9 t = 60 min (MMP-9; [1]): 0%; % cleavage MMP-9 t = 120 min (MMP-9; [2]): 0%
 |  |  | 89 | 100 |  | 100 |  |  |  |  | 1 |  | 4 |  | 8 |  | 56 | 100 | 100 | RGRRPLGLAG ([2Abz]RGRRPLGLAG[Tyr(3-NO2)]-NH2) [LNK049] | % cleavage uPA t = 15 min (uPA; [4]): 0%; % cleavage uPA t = 60 min (uPA; [4]): 0%; % cleavage uPA t = 120 min (uPA; [4]): 0%; % cleavage MMP-2 t = 15 min (MMP-2; [5]): 89%; % cleavage MMP-2 t = 60 min (MMP-2; [6]): 100%; % cleavage MMP-2 t = 120 min (MMP-2; [7]): 100%; % cleavage Matriptase t = 15 min (matriptase; [8]): 16%; % cleavage Matriptase t = 60 min (matriptase; [8]): 70%; % cleavage Matriptase t = 120 min (matriptase; [8]): 100%
 |  |  | 73 | 100 |  | 100 |  |  |  |  | 3 |  | 8 |  | 14 |  | 62 | 100 | 100 | RGRRPLGLAGGSG ([2Abz]RGRRPLGLAGGSG[Tyr(3-NO2)]-NH2) [LNK051] | % cleavage uPA t = 15 min (uPA; [4]): 0%; % cleavage uPA t = 60 min (uPA; [4]): 0%; % cleavage uPA t = 120 min (uPA; [4]): 0%; % cleavage MMP-2 t = 15 min (MMP-2; [5]): 73%; % cleavage MMP-2 t = 60 min (MMP-2; [6]): 100%; % cleavage MMP-2 t = 120 min (MMP-2; [7]): 100%; % cleavage Matriptase t = 15 min (matriptase; [8]): 22%; % cleavage Matriptase t = 60 min (matriptase; [8]): 72%; % cleavage Matriptase t = 120 min (matriptase; [8]): 100%
